Results: patent US7122624B2, “Parathyroid hormone receptor ligands” (The United States of America as represented by the …, priority 1999, dated 2006)

Assays:
[1] = target: T1, human PTH2 receptor (Homo sapiens, UniProt P49190); assay: cAMP accumulation in COS-7 cells transiently expressing the human PTH2 receptor; type: cell-based; conditions: COS-7
T1 construct: expressed in transfected cells; host or cells: COS-7 (transient)
Source text: (§1) Cell culture supplies were obtained from Life Technologies (Frederick, Md.) except for fetal bovine serum which was from Sigma (St. Louis, Mo.).
(§2) The constructs containing the cDNA sequences of the human PTH2 receptor and β-galactosidase have been previously described.
(§3) All peptides were purchased from either Bachem (Torrance, Calif.) or Peninsula Laboratories (Belmont, Calif.). The letters ‘b,’ ‘r’ and ‘h’ designate the peptide sequence as bovine, rat and human, respectively. […] [α-^32P]dCTP was purchased from ICN Biomedicals (Costa Mesa, Calif.). Bovine hypothalamic extract was prepared by acid extraction, gel-filtration and reverse-phase HPLC as previously described. […] Antagonist inhibitory potency was examined by measuring the concentration-dependence of rPTH(1–34)-stimulated cAMP accumulation in the presence and absence of antagonist.
(§4) Statistical comparison of two sample means was evaluated using the two-tailed Student's t-test. […] Antagonist inhibitory potency was quantified using the pA2, value, the negative logarithm of the concentration of antagonist that produces a two-fold decrease of agonist EC50. This was calculated using the following equation: pA2=((EC50/EC50′)−1)−log [antagonist]

[2] = target: T2, rat PTH2 receptor (Rattus norvegicus, UniProt P70555); assay: cAMP accumulation in COS-7 cells transiently expressing the rat PTH2 receptor; type: cell-based
T2 construct: expressed in transfected cells; host or cells: COS-7 (transient)
T2 sequence (P70555 25-546): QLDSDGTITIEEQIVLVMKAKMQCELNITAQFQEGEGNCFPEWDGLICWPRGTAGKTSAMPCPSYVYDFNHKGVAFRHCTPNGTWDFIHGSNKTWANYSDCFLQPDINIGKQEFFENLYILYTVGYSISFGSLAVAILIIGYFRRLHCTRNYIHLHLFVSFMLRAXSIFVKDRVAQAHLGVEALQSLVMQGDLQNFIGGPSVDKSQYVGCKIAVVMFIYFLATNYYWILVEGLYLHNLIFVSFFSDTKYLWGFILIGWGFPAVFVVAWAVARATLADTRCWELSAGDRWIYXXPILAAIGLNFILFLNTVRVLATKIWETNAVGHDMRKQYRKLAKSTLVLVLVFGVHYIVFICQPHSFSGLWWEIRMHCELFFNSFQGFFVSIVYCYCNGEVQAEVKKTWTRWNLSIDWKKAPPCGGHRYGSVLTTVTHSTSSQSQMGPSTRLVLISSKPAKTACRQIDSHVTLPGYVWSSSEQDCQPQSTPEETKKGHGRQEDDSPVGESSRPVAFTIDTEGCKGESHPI
Description: To express rat PTH2 receptor in cell culture, a rat hypothalamus cDNA library was prepared in the vector CDM7 amp as described. […] A clone was isolated from a single positive pool by colony hybridization using the same ^32P labeled probe.
as §1, §2, §3, §4

T1 sequence (P49190 25-550): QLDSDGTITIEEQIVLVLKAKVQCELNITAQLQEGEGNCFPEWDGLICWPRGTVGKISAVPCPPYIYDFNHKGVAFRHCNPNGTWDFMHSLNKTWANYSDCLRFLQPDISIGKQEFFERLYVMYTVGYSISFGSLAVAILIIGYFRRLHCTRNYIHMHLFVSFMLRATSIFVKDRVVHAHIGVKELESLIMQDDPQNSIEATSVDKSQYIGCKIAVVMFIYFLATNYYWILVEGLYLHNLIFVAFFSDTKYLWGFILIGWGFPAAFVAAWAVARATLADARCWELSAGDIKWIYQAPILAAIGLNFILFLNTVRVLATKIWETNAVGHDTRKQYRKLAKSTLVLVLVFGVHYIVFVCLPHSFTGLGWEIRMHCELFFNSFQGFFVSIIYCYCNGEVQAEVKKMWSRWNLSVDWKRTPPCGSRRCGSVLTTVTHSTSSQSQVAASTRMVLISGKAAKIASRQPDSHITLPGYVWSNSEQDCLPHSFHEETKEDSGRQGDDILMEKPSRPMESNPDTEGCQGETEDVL

B1: rPTH(1-84): rat full-length parathyroid hormone (1–84), purchased (peptide)
peptide: AVSEIQLMHNLGKHLASVERMQWLRKKLQDVHNFVSLGVQMAAREGSYQRPTKKEENVLVDGNSKSLGEGDKADVDVLVKAKSQ
EC50 ([1]; activation of adenylyl cyclase, figures in brackets): 0.58 nM
−logEC50 ([1]; activation of adenylyl cyclase, mean ± s.e.m. of three or four experiments): 9.24 ± 0.05
Emax, % of response to 1 μM hPTH(1-34) ([1]; intrinsic activity): 98 ± 4%
EC50 ([2]; activation of adenylyl cyclase, COS-7, figures in brackets): 19 nM
−logEC50 ([2]; activation of adenylyl cyclase, COS-7, mean ± s.e.m. of three or four experiments): 7.72 ± 0.12
Emax, % of response of rPTH2r to 3 μM rPTH(1-34) ([2]; intrinsic activity, COS-7): 97 ± 5%
Emax, % of response of hPTH2r to 1 μM hPTH(1-34) ([2]; rat receptor response relative to human PTH2 receptor response measured in parallel): 28 ± 4%
